Data from the DeepSol protein solubility set.

Assay: soluble on expression in E. coli; label from the status in PepcDB or PDB records

Row | Sequence | soluble on expression in E. coli
1 | MGKNDQYYAVARGKQVGIYRTWNECKTQIDGFQNARFKKFATEAEARKFVADNMSVPGSKPVTPAVSTSSATRKRTHEGTKFTEAKKMKTEEEVIDPEFANAPVVYTDGACSSNGTKNAKAGWGVYWGDDSEDNEFGPVYGAPTNNRGELIAVQKAIEKAIEKRLPKVVIKTDSNLLVQSMNIWIHGWKRKGWKTSTGSEVLNQDVLMKIDNLRQKLKVKFLHVRGHAGIDGNEKADELARKGAQMFIKRS | not soluble
2 | MRGSHHHHHHGIRMRARYPAFSVNYDSSFGGYSIHDYLGQWASTFGDVNHTNGNVTDANSGGFYGGSLSGSQYAISSTANQVTAFVAGGNLTYTLFNEPAHTLYGQLDSLSFGDGLSGGDTSPYSIQVPDVSFGGLNLSSLQAQGHDGVVHQVVYGLMSGDTGALETALNGILDDYGLSVNSTFDQVAAATAVGVQHADSPELLAA | soluble
3 | MGSSHHHHHHSSGLVPRGSEHLKNISPIDGRYKKACGELSAFFSEHALIKHRIIVEVRWLLFLNEEELFFEKVTDHSVEVLNQIATNITDSDIARVKAIEEETNHDVKAVEYFVKEKLKNSKREDLLKIKEYVHYLCTSEDINNVAYATCLKACLNDVVIPCLEKIMLKLKDLAVEYSHVPLLSRTHGQPASSTTFGKEMANFYARIHHHVGVIRRVKVCAKFNGAVGNFNAHKVASKDTDWVNTIGLFLKKHFNLTYSIYCTQIQDHDYICELCDGLARANGTLIDLCVDIWLYISNNLLKLKVKEKEVGSSTMPHKVNPIDFENAEGNLHIANAFFKLFSSKLPTSRLQRDLSDSTVLRNIGSSLAYCLIAYKSVLKGLNKIDIDRRNLEEELNQNWSTLAEPIQIVMKRHNYVDAYEELKQFTRGKVIDQKIMQEFIKTKCAFLPQDVVDQLLELTPATYTGYADYLAKNVERLSGERD | soluble
4 | MSHAVARLRAERLARSNKPFIARGSRAERCPDCRVIATHCLCAWKPRVQADAGVCLLMHDTEPLKPTNTGWLIADLIEDTWAFGWLRTAVDERLLALLDDPRWQPYIVFPGEFVAQERVVSEVVREPGKRPLFILLDATWTEARKMFRKSPYLDRFPVLSLQAEQMSRYRLRRSKRDDHFCTAEVAAMCLDLAGDGQASQALDAYLDVFSLHYLSGKRRLPLDEQDDTHQRLHTFLLEHHHHHH | soluble
5 | AHHHHHHGSIIELDEFTRVEGNGKAEIVIENGEVKDARVKIVEGPRFFEILTLGRDYWDVPDLEARICAICYIAHSVASVRAIEKALGIDVPESVEKLRELALWGEIIESHALHLYLLALPDVFGYPDAISMIPRHGELVKEGLTIKAFGNAIRELIGGREIHGINIKPGGFGRYPSEEELEKIAEHSKSLIKFARRIVGIFASQEAGGAVGEVLMATSDYLWGDELIINGERVQYYEVDEVPVGYSFAKHSYYKGNPVFVGALPRLLLKGESIEGEAARMLEEYRDKLESKYVIYNNLAQAIELLYALERVPQLVEEILSEGIERGNGEISQESGEGVGYVEAPRGVLVHHYRIENGKVVWSNTITPTAFNQRLMELSLLEEAKRLYGSESEENMKKRLEVIVRAFDPCISCSVHFVKL | soluble
6 | MKVGIVLGTKPSNPLEFWVGVEKGKFLQLDDVVVVNSKIDGTNEEIKFYGIVQEVIKYLEGVELVYDAQLVNSGVVPANLAYMARVSVTRIEPEVFIPPTPGDYVFKAEGIDFEKALYYDNMKRKIPAGLTRNGEVVYLNYDFINGREGAHISISGMSGVATKTSYALFLLYSIFQKADDRTKIHGIIFNVKGKDLLWIDKKNKRFTKEHREAFEKLGLPPEPFKNVAFWAPPEQEWSEIPSSGERLEGVFPYKWSMKDFAQEGLLRFLFAEGDEGATSLHYVIDRVSEKLQQLAKESPGDVLLDENGQEINSLGDLLKLLHEVIEDRETKRDPDRYREWFGTAATATAYAFLRRFHHAASHCKHLVHGNKSRHIDWRSHQLNVIDISDLHGIAKMFVVGSILKKIFREKEETGNPYPKIFVVLDELNKYAPKDKWSPIKEILLDIAERGRSLGVILIGAQQTASEIEKRIVANAAVKVTGRLDSSEVLSKEYEFLTGNFRQRAIMLKKGTMILYQPDIPNPVMIKFPLAPWATKKEEVEEEVSAPKEFDQF | soluble
7 | GEEQPQQISVASGTPVSADQTPATPQEQPRAPWWDASPGVQRLITLKDPQVVCEAASAGLLKTLRFVKYLPCFQILPLDQQLVLVRSCWAPLLMLELAQDHLHFEMMEIPETNTTQEMLTTRRQETEGPEPAEPQATEQPQMVSAEAGHLLPAAAVQAIKSFFFKCWSLNIDTKEYAYLKGTVLFNPDLPGLQCVKYIEGLQWRTQQILTEHIRMMQREYQIRSAELNSALFLLRFINSDVVTELFFRPIIGAVSMDDMMLEMLCAKL | soluble
8 | MEKFVLSLDEGTTSARAIIFDRESNIHGIGQYEFPQHYPRPGWVEHNPEEIWDAQLRAIKDAIQSARIEPNQIAAIGVTNQRETTLVWDKDGKPLYNAIVWQCRRTAEMVEEIKREYGTMIKEKTGLVPDAYFSASKLKWLLDNVPGLREKAEKGEVMFGTVDTFLIYRLTGEHVTDYSNASRTMLFNIKKLDWDDELLELFDIPESVLPEVRESSEVYGYTKKELLGAEIPVSGDAGDQQAALFGQAAFEAGMVKATYGTGSFILVNTDKMVLYSDNLLTTIAWGLNGRVSYALEGSIFVTGAAVQWLRDGIKIIKHASETEELATKLESNEGVYFVPAFVGLGAPYWDQFARGIIIGITRGTGREHLARATLEAIAYLTRDVVDEMEKLVQIKELRVDGGATANDFLMQFQADILNRKVIRPVVKETTALGAAYLAGLAVDYWADTREIAELWKAERIFEPKMDEKTRERLYKGWKEAVKRAMGWAKVVDSAKSN | soluble
9 | SSRAKRIMKEIQAVKDDPAAHITLEFVSESDIHHLKGTFLGPPGTPYEGGKFVVDIEVPMEYPFKPPKMQFDTKVYHPNISSVTGAICLDILRNAWSPVITLKSALISLQALLQSPEPNDPQDAEVAQHYLRDRESFNKTAALWTRLYASETSNGQKGNVEESDLYGIDHDLIDEFESQGFEKDKIVEVLRRLGVKSLDPNDNNTANRIIEELLK | soluble
10 | MITIDLHTHTSHSHGQATVQEMFEAGCARGLLVHGFSEHSPRPSGYDYPKDYRDKLTRSFPDYVEQVRTLAATYAPERTVLLGLEMDWLPGQEPFIDATIHRYDYDYVIGGIHFLGTWGFDYTPDDWQGFSPEQTADIYVRYFESLRRMAASGMFDIAAHPDIIKIFSAAAFHDWLATDKAKAVVRDALETMHTAGMAMEISSAGLRKPCKEIYPCPDIMRMAADIGLPVTFGSDAHCVNTIGWGFDTLADYARGFGYTRSVWMRRGERFERPFLEHHHHHH | soluble
11 | MGSDKIHHHHHHMTESSINLLFSIDNRFVEQFKVTLYSLYQNTSNKNLKIYMLQKELLADHKAIERFCYQLGLSYKPIIIGEEDFKDAPVSDRYPETIYYRLLAQDYLPKSLDKILYLDADILCLNDIAPLYQMDMKNYIYAAASHVSDKSITDIVNKLRLNNFEAEGYFNSGVLLMNLEQCRQKIKPQDIMNYISRKGNTLLLPDQDVLNALYGTKTHLIPDEIYNYDARYNIIYFTRSLGEWDLDWVIENTVFLHFCGKDKPWRKDYKGRYAALYKHYQHRVKILEK | not soluble
12 | MSLAYGNINQPFSLESLPDELIPENLYQIETDSSRVFQRHQCRRLAHLLLFQLLKIAGKSTALLSQIHRTESGRPYFLDERIDFNISHSGDWVAVILDIRNEEKSAVGIDIEFPKIRNFTALMEHIAPKEEIDWFHHQQDSLNAFYRCWCLREAVLKSQGFGIVKLSNVRHFPEQQKIFSDYCPQGQLWFTDELPIYLAAFVNHQEKLPHFYEWNRESLQIKELEKYVLYEVNEGHHHHHH | not soluble
13 | MRKKSSSNKEETALHPPPENFETATAELEQIVAGMETGQMSLEDALSAYKRGVELLQYCQNILKNSQQQIKILEADMLKHFSPAEHDAS | not soluble
14 | AHHHHHHGSLEKLLEQAGIKLDFDGEEEKKSEIVDEFSGYKINIAVVGVGGSGNNTISRLYDLGVQGADLIAMNTDAQHLAITKAHKKVLLGKHITQGKGSGGDPKVGYLAAEASAQEIAAAVDGYDLVFITAGMGNGTGTGAAPVVARIVKETARNNGRFQEPLVVSVVTFPFKTEGTVRIEKAKWGIQRLLEYSDTVIIIQNDKLLELVPKLPLQSAFRFADELIARMVKGIVETIKLNSIVNIDFADVYSIMKGGGPALIGIGESDSNNRAVDAVNNALTNKMLDVEFGSGEKALVHFTIGPDVSLEEINKAMEVVYEKLSEKSEIKWGAMVDPEMGKTVRAMVIMTGVRSPYILGNVNALTDSSSWVVPKDRRLIGDPRIEKMFPDFNGSRAGRKRPSVGDAILKELGFKEL | soluble
15 | MMKKIAITCALLSSLVASSVWADAASDLKSRLDKVSSFHASFTQKVTDGSGAAVQEGQGDLWVKRPNLFNWHMTQPDESILVSDGKTLWFYNPFVEQATATWLKDATGNTPFMLIARNQSSDWQQYNIKQNGDDFVLTPKASNGNLKQFTINVGRDGTIHQFSAVEQDDQRSSYQLKSQQNGAVDAAKFTFTPPQGVTVDDQRK | soluble
16 | GGGSCYFIPNEGVPGDSTRKCMDLKGNKHPINSEWQTDNCETCTCYETEISCCTLVSTPVGYDKDNCQRIFKKEDCKYIVVEKKDPKKTCSVSEWII | soluble
17 | MTLKLIGAGFGRTGTWSTFAALNRLGLPCYHMQEVIMNKANKGHLDFWRKVANSPPGSQHDWNRVFANYTATVDNPGCCVWKELLAAYPDAKVLLTLHPRGAEAWYESTIDTIYFTENVWQFKILEWLTPFGWKFGDMSRKLIWGRTLDGVMNDRAKAVARYNTYVEQVKAAVPPHKLLVYKVTEGWAPLCDFLGLEHHHHHH | soluble
18 | MAHHHHHHMGQGFSRAQMEEYKELVKDRFSEEAIEFLFMKFHKAAPEGVMTPVEFKRYIDSTGVYKNYRRTHLASWFPSYAKYTHSKGGNRAVRKTSAQILDREMYLHLFRAYDRDCDGVISFREFLLYHLAVMYSTEELFVVVFNAYDDDQDGYLSLDDIRNTITAATRYVGDCDVEDQEVQRVIDEEAQRLMFFLDVRKDGRIRRDDMRLITQKHPEVLEKMKNLM | soluble
19 | MSLAGQIAIVTGASRGIGRGIALQLGEAGATVYITGRKPEESLNSKVGLSGLEATADEITKRGGKGIARFVDHQNMEEVKNFFEVVEKEHQGQLDILVNNAYQGVTAISENMGKPFYETDPYVWDTINNVGLRNHYFCTVYAARLMTARNKGLIVNVSSGGGLRYLFNVAYGVGKQALDRMSADTAVELRKKNVCVVSIWPGAVRTELVDKMFKDENGKPRPEIKNAEVFANGETVEYPGRAVVSLASDPRRMDKTGRILITEDLGKEYGFVDIDGLRPPNLRSVSFILKHLGWNTTANFVPTWVKLPGWLVWAGNSRL | soluble
20 | MGSDKIHHHHHHMSASIPETMKAVVIENGKAVVKQDIPIPELEEGFVLIKTVAVAGNPTDWKHIDFKIGPQGALLGCDAAGQIVKLGPNVDAARFAIGDYIYGVIHGASVRFPSNGAFAEYSAISSETAYKPAREFRLCGKDKLPEGPVKSLEGAVSLPVSLTTAGMILTHSFGLDMTWKPSKAQRDQPILFWGGATAVGQMLIQLAKKLNGFSKIIVVASRKHEKLLKEYGADELFDYHDADVIEQIKKKYNNIPYLVDCVSNTETIQQVYKCAADDLDATVVQLTVLTEKDIKEEDRRQNVSIEGTLLYLIGGNDVPFGTFTLPADPEYKEAAIKFIKFINPKINDGEIHHIPVKVYKNGLDDIPQL | not soluble
